Measurements taken from paper doi:10.1101/2023.01.10.523476 (bioRxiv, 2023).
Where two headings read alike, the source gives them in different places.

B1: GspDβ secretin (ETEC H10407 strain) with hexahistidine tag (natural protein)
chain: EEATFTANFKDTDLKSFIETVGANLNKTIIMGPGVQGKVSIRTMTPLNERQYYQLFLNLLEAQGYAVVPMENDVLKVVKSSAAKVEPLPLVGEGSDNYAGDEMVTKVVPVRNVSVRELAPILRQMIDSAGSGNVVNYDPSNVIMLTGRASVVERLTEVIQRVDHAGNRTEEVIPLDNASASEIARVLESLTKNSGENQPATLKSQIVADERTNSVIVSGDPATRDKMRRLIRRLDSEMERSGNSQVFYLKYSKAEDLVDVLKQVSGTLTAAKEEAEGTVGSGREIVSIAASKHSNALIVTAPQDIMQSLQSVIEQLDIRRAQVHVEALIVEVAEGSNINFGVQWASKDAGLMQFANGTQIPIGTLGAAISQAKPQKGSTVISENGATTINPDTNGDLSTLAQLLSGFSGTAVGVVKGDWMALVQAVKNDSSSNVLSTPSITTLDNQEAFFMVGQDVPVLTGSTVGSNNSNPFNTVERKKVGIMLKVTPQINEGNAVQMVIEQEVSKVEGQTSLDVVFGERKLKTTVLANDGELIVLGGLMDDQAGESVAKVPLLGDIPLIGNLFKSTADKKEKRNLMVFIRPTILRDGMAADGVSQRKYNYMRAEQIYRDEQGLSLMPHTAQPVLPAQNQALPPEVRAFLNAGRTR
B2: GspDα secretin (E. coli K12 strain) (natural protein)
chain: ENEQYGANFNNADIRQFVEIVGQHLGKTILIDPSVQGTISVRSNDTFSQQEYYQFFLSILDLYGYSVITLDNGFLKVVRSANVKTSPGMIADSSRPGVGDELVTRIVPLENVPARDLAPLLRQMMDAGSVGNVVHYEPSNVLILTGRASTINKLIEVIKRVDVIGTEKQQIIHLEYASAEDLAEILNQLISESHGKSQMPALLSAKIVADKRTNSLIISGPEKARQRITSLLKSLDVEESEEGNTRVYYLKYAKATNLVEVLTGVSEKLKDEKGNARKPSSSGAMDNVAITADEQTNSLVITADQSVQEKLATVIARLDIRRAQVLVEAIIVEVQDGNGLNLGVQWANKNVGAQQFTNTGLPIFNAAQGVADYKKNGGITSANPAWDMFSAYNGMAAGFFNGDWGVLLTALASNNKNDILATPSIVTLDNKLASFNVGQDVPVLSGSQTTSGDNVFNTVERKTVGTKLKVTPQVNEGDAVLLEIEQEVSSVDSSSNSTLGPTFNTRTIQNAVLVKTGETVVLGGLLDDFSKEQVSKVPLLGDIPLVGQLFRYTSTERAKRNLMVFIRPTIIRDDDVYRSLSKEKYTRYRQEQQQRIDGKSKALVGSEDLPVLDENTFNSHAPAPSSR

Key:
cryo-EM structure [1] = molecular target: the molecule itself; assay: cryo-EM structure
cryo-EM structure [2] = molecular target: the molecule itself; assay: cryo-EM structure; remark: listed apart in the source

Protein	stoichiometry N (cryo-EM structure [1])	stoichiometry N (cryo-EM structure [2])
B1	15	–
B2	–	15
